According to patent US20260078196A1 (TJ BIOPHARMA SHANGHAI, published 2026):
Substitutions are numbered along the chain they refer to. Like-named read-outs stand apart in the source and are kept apart here. Each block holds one binder with its values, some of them ahead of it.

Columns and labels:
human MUC16 on cells [1] = target: T1, human MUC16 on cells (human, UniProt Q8WXI7 1-14507); test: flow cytometry (GMFI) on OVCAR3 cells, nM is the unit of the x axis Log10[Ab] (nM); curve without upper plateau
T1 construct: whole, on cells; also called huMUC16; MUC16 on OVCAR3 and SNU216 cells

huMUC16, AA14198-14507 = target: T2, huMUC16, AA14198-14507; test: binding ELISA on huMUC16 AA14198-14507
T2 chain: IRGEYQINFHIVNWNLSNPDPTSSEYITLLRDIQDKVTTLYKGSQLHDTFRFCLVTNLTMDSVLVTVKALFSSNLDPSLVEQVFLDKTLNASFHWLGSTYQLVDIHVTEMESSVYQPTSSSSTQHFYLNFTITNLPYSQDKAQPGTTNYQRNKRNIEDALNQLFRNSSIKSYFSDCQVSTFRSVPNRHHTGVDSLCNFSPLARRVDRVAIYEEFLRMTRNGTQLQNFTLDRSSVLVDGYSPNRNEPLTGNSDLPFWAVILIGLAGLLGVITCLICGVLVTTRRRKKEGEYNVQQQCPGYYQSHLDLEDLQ

huMUC16, AA13789-14451 = target: T3, huMUC16, AA13789-14451; test: binding ELISA on huMUC16 AA13789-14451
T3 construct: also called MUC16 Antigen (human MUC16 AA13789-14451)
T3 chain: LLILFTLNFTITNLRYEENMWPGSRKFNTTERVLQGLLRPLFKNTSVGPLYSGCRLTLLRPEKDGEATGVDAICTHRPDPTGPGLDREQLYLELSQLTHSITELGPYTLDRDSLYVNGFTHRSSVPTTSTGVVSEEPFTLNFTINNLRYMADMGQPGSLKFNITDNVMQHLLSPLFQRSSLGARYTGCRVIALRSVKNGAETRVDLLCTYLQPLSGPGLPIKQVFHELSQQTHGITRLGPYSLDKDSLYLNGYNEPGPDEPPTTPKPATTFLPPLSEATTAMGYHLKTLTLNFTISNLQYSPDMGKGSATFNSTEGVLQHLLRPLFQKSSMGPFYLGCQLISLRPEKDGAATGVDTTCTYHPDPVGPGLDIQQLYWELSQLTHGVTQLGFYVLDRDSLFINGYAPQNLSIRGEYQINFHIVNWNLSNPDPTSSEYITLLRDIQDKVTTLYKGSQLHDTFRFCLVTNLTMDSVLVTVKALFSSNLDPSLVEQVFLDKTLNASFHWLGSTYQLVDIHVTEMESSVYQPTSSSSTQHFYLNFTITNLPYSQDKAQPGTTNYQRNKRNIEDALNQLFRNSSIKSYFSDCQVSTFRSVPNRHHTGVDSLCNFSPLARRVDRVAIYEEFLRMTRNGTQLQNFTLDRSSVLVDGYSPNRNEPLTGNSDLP

ROR1 on cells [2] = target: T4, ROR1 on cells (UniProt Q01973 30-937); test: flow cytometry (gMFI) on A549 cells
T4 construct: whole, on cells; also called ROR1 endogenous expressed tumor cell A549; ROR1-positive tumor cell lines

human MUC16 on cells [3] = target: T1, human MUC16 on cells; test: flow cytometry (GMFI) on OVCAR3 cells, nM is the unit of the x axis Log10[Ab] (nM)
human MUC16 on cells [4] = target: T1, human MUC16 on cells; test: flow cytometry (MFI GeoMean) on SNU216 cells, nM is the unit of the x axis Log10[Ab] (nM)
[5] = target: T5, HEK293-MUC16 (13810-14507) (human, UniProt Q8WXI7 13810-14507); test: flow cytometry (MFI GeoMean) on HEK293-MUC16 (13810-14507) cells, nM is the unit of the x axis Log10[Ab] (nM)
T5 construct: range 13810-14507; also called MUC16 overexpressed HEK293 cells
T5 sequence: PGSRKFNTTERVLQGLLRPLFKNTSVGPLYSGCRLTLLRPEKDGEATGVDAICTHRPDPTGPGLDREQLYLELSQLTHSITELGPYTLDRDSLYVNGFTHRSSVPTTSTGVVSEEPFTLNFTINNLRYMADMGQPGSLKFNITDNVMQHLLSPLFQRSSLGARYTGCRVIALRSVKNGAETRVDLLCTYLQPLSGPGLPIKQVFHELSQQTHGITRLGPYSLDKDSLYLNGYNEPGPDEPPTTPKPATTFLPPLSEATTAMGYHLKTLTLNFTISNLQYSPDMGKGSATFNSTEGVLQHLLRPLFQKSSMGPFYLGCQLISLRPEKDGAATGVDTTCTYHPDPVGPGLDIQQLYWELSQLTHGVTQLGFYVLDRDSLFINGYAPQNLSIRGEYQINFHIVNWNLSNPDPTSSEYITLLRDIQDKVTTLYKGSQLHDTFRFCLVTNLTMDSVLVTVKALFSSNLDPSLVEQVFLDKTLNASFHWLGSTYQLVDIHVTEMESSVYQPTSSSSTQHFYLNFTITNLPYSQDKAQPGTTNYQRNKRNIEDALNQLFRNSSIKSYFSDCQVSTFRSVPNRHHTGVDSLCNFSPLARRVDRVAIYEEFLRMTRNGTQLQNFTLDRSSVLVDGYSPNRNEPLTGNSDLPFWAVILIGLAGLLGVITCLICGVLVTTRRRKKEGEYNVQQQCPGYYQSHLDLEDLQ

human MUC16 on cells [6] = target: T1, human MUC16 on cells; test: flow cytometry (MFI GeoMean) on OVCAR3 cells, nM is the unit of the x axis Log10[Ab] (nM)
human MUC16 = target: T6, human MUC16 (human); test: binding kinetics, sensorgrams in RU in FIG. 14B, model printed: Kinetics 1:1; form of the MUC16 antigen not given
T6 construct: also called MUC16 antigen of the kinetic assay

human MUC16 on cells [7] = target: T1, human MUC16 on cells; test: flow cytometry (GMFI) on OVCAR3 cells, nM is the unit of the x axis Log10[Ab] (nM); curve without upper plateau; remark: listed apart in the source
ROR1 on cells [8] = target: T4, ROR1 on cells; test: flow cytometry (gMFI) on A549 cells; remark: listed apart in the source

EC50 (human MUC16 on cells [1]): 15.1 nM
binding result (huMUC16, AA14198-14507): no binding (tested: 100 nM)
binding result (huMUC16, AA13789-14451): binds
B3: B195 (antibody, V domains shown)
VH: EVQLVQSGAEVKKPGASVKVSCKASGGTFSSYAISWVRQAPGQGLEWMGGIIPIFGTANYAQKFQGRVTITADESTSTAYMELSSLRSEDTAVYYCAREGPDYGDYSWSMDYYYGMDVWGQGTMVTVSS
VL: EIVMTQSPGTLSLSPGERATLSCRASQSVNSRYLAWYQHKPGQAPRLLMYGASTRATGIPDRFSGSGSGTDFTLTISRLEPEDFAVYYCQQYGTFSITFGQGTRLEIK
notes: Anti-MUC16 mAb

binding result (ROR1 on cells [2]): binds
B5: humanized 8F2 anti-ROR1 mAb (antibody, V domains shown)
VH: QVQLVQSGAEVKKPGASVKVSCKASGYTFTTYVMHWVRQAPGQGLEWMGYINPYNGGIRYNEKFKGRVTMTRDTSTSTVYMELSSLRSEDTAVYYCARRERGVYYGMDEWGQGTLVTVSS
VL: DIVMTQTPLSLSVTPGQPASISCKSSQSLLHSNGKTYLNWYLQKPGQSPQLLIYLVSKLESGVPDRFSGSGSGTDFTLKISRVEAEDVGVYYCLQATYFPYTFGQGTKLEIK
notes: also called h8F2

EC50 (human MUC16 on cells [3]): 0.526 nM
EC50 (human MUC16 on cells [4]): 1.24 nM
EC50 [5]: 0.579 nM
EC50 (human MUC16 on cells [6]): 0.763 nM
Kd (human MUC16): 5.26 nM
koff (human MUC16): 0.0035 s⁻¹
B10: D57 (antibody, V domains shown)
VH: EVQLLESGGGLVTPGGSLRLSCTASGFTFSDYYLSWVRQAPGKGLEWMGGIIPIFGTANYAQKFQGRVTITADESTSTAYMELSSLRSEDTAVYYCARGGPHYDFWSGYTPGQHGGAFDIWGQGTMVTVSS
VL: EIVLTQSPGTLSLSPGERATLSCRASQSVSSSYLAWYQQKPGQAPRLLIYGASSRATGIPDRFSGSGSGTDFTLTISRLEPEDFAVYYCQQRSNWRNTFGQGTRLEIK
notes: Anti-MUC16 mAb; also called MUC16-D57

EC50 (read off the curve) (ROR1 on cells [8]): ~0.04 nM
B11: 3C5 (antibody, V domains shown)
VH: EVKLVESGGGLVKPGGSLKLSCAASGFTFSSYAMSWVRQTPEKRLEWVSSISSGGTTYYPDTVKGRFTISRDNARNILYLQMSSLRSEDTAMYYCARDSLYYGSSLYYAMDYWGQGTSVTVSS
VL: DIKMTQSPSSMYASLGERVSITCRASQDIYSYLSWFQQKPGKSPKTLIYRANRLVDGVPSRFSGSGSGQDYSLTISSLEYEDMGIYYCLQYDEFPYTFGGGTKLEIK
notes: Anti-ROR1 mAb (chimeric section 9.1); also called anti-ROR1 mAb 3C5

Further lines, the binder ahead of its results:

B1: D79 (antibody, V domains shown)
VH: QMQLVQSGAEVKKPGSSVKVSCKASGGTFSSYAISWVRQAPGQGLEWMGGIIPIFGTANYAQKFQGRVTITADESTSTAYMELSSLRSEDTAVYYCARDSGSSITMVRGGDYYYMDVWGKGTTVTVSS
VL: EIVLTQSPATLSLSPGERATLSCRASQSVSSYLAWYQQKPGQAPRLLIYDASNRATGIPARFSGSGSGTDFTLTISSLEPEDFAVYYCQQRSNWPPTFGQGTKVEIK
notes: Anti-MUC16 mAb
EC50 (human MUC16 on cells [1]): 40.6 nM
binding result (huMUC16, AA14198-14507): no binding (tested: 100 nM)
binding result (huMUC16, AA13789-14451): binds

B2: B76 (antibody, V domains shown)
VH: QMQLVQSGAEVKKPGSSVKVSCKASGGTFSSYAISWVRQAPGQGLEWMGGIIPIFGTANYAQKFQGRVTITADESTSTAYMELSSLRSEDTAVYYCARSITDYYDSSGYYFRPHFNTGYYYGMDVWGQGTTVTVSS
VL: NIQLTQSPSSLSASVGDRVTITCRASQGINNYLAWYQQKPGKVPKLLIYAASTLQSGVPSRFSGSGSGTDFTLTITNLQPDDFATYYCQQYDTFSETFGPGTKVEIK
notes: Anti-MUC16 mAb
EC50 (human MUC16 on cells [1]): 16.8 nM
binding result (huMUC16, AA14198-14507): no binding (tested: 100 nM)
binding result (huMUC16, AA13789-14451): binds

B4: 8F2 (antibody, V domains shown)
VH: EVQLQQSGPELVKPGASVKMSCKASGYTFTTYVMHWVKQKPGQGLEWIGYINPYNGGIRYNEKFKGKATLTSDKSSSTAYMELSSLTSEDSAVYYCARRERGVYYGMDEWGQGTSVTVSS
VL: B5 VL with I2V, S10T, P15I, Y41L, K44R, Q50N, V88L, Q105S
notes: Anti-ROR1 mAb (chimeric section 9.1); also called anti-ROR1 mAb 8F2
EC50 (read off the curve) (ROR1 on cells [2]): ~0.02 nM

B6: B218 (antibody, V domains shown)
VH: EVQLLESGAEVKKPGSSVKVSCKASGGTFSSYAISWVRQAPGQGLEWMGGIIPIFGTANYAQKFQGRVTITADESTSTAYMELSSLRSEDTAVYYCARGGPHYDFWSGYTPGQHGGAFDIWGQGTMVTVSS
VL: NIQMTQSPSTLSASLGDRVSITCRASQSISGWLAWYQQKPGKAPKLLIYRTSYLESGVPSRFSAGGSGTEFTLTISSLQPDDFATYYCQHYDTFSRAFGQGTKVDIK
notes: Anti-MUC16 mAb; also called MUC16-B218
binding result (huMUC16, AA14198-14507): no binding (tested: 100 nM)
EC50 (human MUC16 on cells [3]): 0.687 nM
EC50 (human MUC16 on cells [4]): 0.76 nM
binding result (huMUC16, AA13789-14451): binds
EC50 [5]: 0.244 nM
EC50 (human MUC16 on cells [6]): 0.907 nM
Kd (human MUC16): 6.17 nM
koff (human MUC16): 0.0031 s⁻¹
kon (human MUC16): 502000 M⁻¹ s⁻¹

B7: D41 (antibody, V domains shown)
VH: EVQLLESGGGLVQPGGSLRLSCAASGFTFSSYEMNWVRQAPGKGLEWVGRIKSKTDGGTTDYAAPVKGRFTISRDDSKNTLYLQMNSLKTEDTAVYYCTTDLAAVAGLFDYWGQGTTVTVSS
VL: DIQLTQSPSSLSASVGDRVTITCQASQDISNYLNWYQQKPGKAPKLLIYDASNLETGVPSRFSGSGSGTDFTLTISSLQPEDFATYYCQQSYSTPWKFGQGTKVEIK
notes: Anti-MUC16 mAb
EC50 (human MUC16 on cells [7]): 23.1 nM
binding result (huMUC16, AA14198-14507): no binding (tested: 100 nM)
binding result (huMUC16, AA13789-14451): binds

B8: D100 (antibody, V domains shown)
VH: QVQLVQSGAEVKKPGSSVKVSCKASGGTFSRYHAISWVRQAPGQGLEWMGGIIPILGTANYAQKFQGRVTITADESTSTAYMELSSLRSEDTAVYYCASGTTAARYYYYYYYMDVWGKGTTVTVSS
VL: NIQMTQSPSSLSASVGDRVTITCQASQDISNYLNWFHQKPGKAPNLLIYDASNLETGVPSRFSGSGSGTDFTFTISSLQPEDIGTYYCQQYDNLPLTFGGGTKVDIK
notes: Anti-MUC16 mAb; also called MUC16-D100
binding result (huMUC16, AA14198-14507): no binding (tested: 100 nM)
EC50 (human MUC16 on cells [3]): 0.395 nM
EC50 (human MUC16 on cells [4]): 0.12 nM
binding result (huMUC16, AA13789-14451): binds
EC50 [5]: 0.0874 nM
EC50 (human MUC16 on cells [6]): 0.286 nM

B9: humanized 3C5 anti-ROR1 mAb (antibody, V domains shown)
VH: EVQLVESGGGLVKPGGSLRLSCAASGFTFSSYAMSWVRQAPGKRLEWVSSISSGGTTYYPDTVKGRFTISRDNAKNSLYLQMNSLRAEDTAVYYCARDALYYGSSLYYAMDYWGQGTLVTVSS
VL: DIQMTQSPSSLSASVGDRVTITCRASQDIYSYLSWFQQKPGKAPKTLIYRANRLVDAVPSRFSGSGSGQDYTLTISSLQPEDFATYYCLQYDEFPYTFGQGTKLEIK
notes: also called h3C5; h3C5-PTM
EC50 (read off the curve) (ROR1 on cells [8]): ~0.04 nM
